Literature values as cited in article PMC3566329.
pKd: −log10 of the molar value.

Experiments:
[1] = molecular target: Methylamine dehydrogenase (quinone) (Paracoccus denitrificans) (UniProt P22619); assay: single turnover kinetics
[2] = molecular target: preMADH (Paracoccus denitrificans) (UniProt P22619)

Substance | pKd [1] | pKd [2]
MauG (di-ferrous) (from UniProt Q51658) | 5.00 | 
MauG (from UniProt Q51658) |  | > 5.82
